IntAct's records for PubMed 19008854

B1: Antiviral innate immune response effector IFIT1 (Homo sapiens), P09914 (parent)
chain: MSTNGDDHQVKDSLEQLRCHFTWELSIDDDEMPDLENRVLDQIEFLDTKYSVGIHNLLAYVKHLKGQNEEALKSLKEAENLMQEEHDNQANVRSLVTWGNFAWMYYHMGRLAEAQTYLDKVENICKKLSNPFRYRMECPEIDCEEGWALLKCGGKNYERAKACFEKVLEVDPENPESSAGYAISAYRLDGFKLATKNHKPFSLLPLRQAVRLNPDNGYIKVLLALKLQDEGQEAEGEKYIEEALANMSSQTYVFRYAAKFYRRKGSVDKALELLKKALQETPTSVLLHHQIGLCYKAQMIQIKEATKGQPRGQNREKLDKMIRSAIFHFESAVEKKPTFEVAHLDLARMYIEAGNHRKAEENFQKLLCMKPVVEETMQDIHFHYGRFQEFQKKSDVNAIIHYLKAIKIEQASLTRDKSINSLKKLVLRKLRRKALDLESLSLLGFVYKLEGNMNEALEYYERALRLAADFENSVRQGP
partner: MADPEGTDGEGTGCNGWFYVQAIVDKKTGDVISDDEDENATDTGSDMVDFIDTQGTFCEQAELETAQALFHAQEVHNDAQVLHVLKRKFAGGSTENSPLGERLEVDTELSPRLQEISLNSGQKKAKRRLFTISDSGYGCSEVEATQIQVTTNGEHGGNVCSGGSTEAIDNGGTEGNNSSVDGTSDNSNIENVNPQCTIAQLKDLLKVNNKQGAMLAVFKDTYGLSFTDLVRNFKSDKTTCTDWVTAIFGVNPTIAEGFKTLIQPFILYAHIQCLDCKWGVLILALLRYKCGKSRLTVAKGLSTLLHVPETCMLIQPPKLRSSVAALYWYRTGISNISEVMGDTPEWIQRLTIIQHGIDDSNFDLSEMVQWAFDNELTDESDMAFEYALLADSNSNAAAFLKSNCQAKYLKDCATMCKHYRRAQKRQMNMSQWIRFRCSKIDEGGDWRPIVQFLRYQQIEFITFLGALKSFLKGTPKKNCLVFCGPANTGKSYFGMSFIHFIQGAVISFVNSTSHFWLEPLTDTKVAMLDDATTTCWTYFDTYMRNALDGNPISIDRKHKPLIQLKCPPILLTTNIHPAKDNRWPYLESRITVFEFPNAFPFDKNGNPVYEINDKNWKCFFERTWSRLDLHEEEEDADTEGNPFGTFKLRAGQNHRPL

Variants of: B1
Details: with ve1_hpv18 E1, P06789
For MSTNGDDHQVKDSLEQLRCHFTWELSIDDDEMPDLENRVLDQIEFLDTKYSVGIHNLLAYVKHLKGQNEEALKSLKEAENLMQEEHDNQANVRSLVTWGNFAWMYYHMGRLAEAQTYRDKVENICKKLSNPFRYRMECPEIDCEEGWALLKCGGKNYERAKACFEKVLEVDPENPESSAGYAISAYRLDGFKLATKNHKPFSLLPLRQAVRLNPDNGYIKVLLALKLQDEGQEAEGEKYIEEALANMSSQTYVFRYAAKFYRRKGSVDKALELLKKALQETPTSVLLHHQIGLCYKAQMIQIKEATKGQPRGQNREKLDKMIRSAIFHFESAVEKKPTFEVAHLDLARMYIEAGNHRKAEENFQKLLCMKPVVEETMQDIHFHYGRFQEFQKKSDVNAIIHYLKAIKIEQASLTRDKSINSLKKLVLRKLRRKALDLESLSLLGFVYKLEGNMNEALEYYERALRLAADFENSVRQGP [L118R], the “effect of a mutation on the interaction” value was “disrupting interaction”. With MSTNGDDHQVKDSLEQLRCHFTWELSIDDDEMPDLENRVLDQIEFLDTKYSVGIHNLLAYVKHLKGQNEEALKSLKEAENLMQEEHDNQANVRSLVTWGNFAWMYYHMGRLAEAQTYLDKEENICKKLSNPFRYRMECPEIDCEEGWALLKCGGKNYERAKACFEKVLEVDPENPESSAGYAISAYRLDGFKLATKNHKPFSLLPLRQAVRLNPDNGYIKVLLALKLQDEGQEAEGEKYIEEALANMSSQTYVFRYAAKFYRRKGSVDKALELLKKALQETPTSVLLHHQIGLCYKAQMIQIKEATKGQPRGQNREKLDKMIRSAIFHFESAVEKKPTFEVAHLDLARMYIEAGNHRKAEENFQKLLCMKPVVEETMQDIHFHYGRFQEFQKKSDVNAIIHYLKAIKIEQASLTRDKSINSLKKLVLRKLRRKALDLESLSLLGFVYKLEGNMNEALEYYERALRLAADFENSVRQGP [V121E] the “effect of a mutation on the interaction” value was “disrupting interaction”. For MSTNGDDHQVKDSLEQLRCHFTWELSIDDDEMPDLENRVLDQIEFLDTKYSVGIHNLLAYVKHLKGQNEEALKSLKEAENLMQEEHDNQANVRSLVTWGNFAWMYYHMGRLAETQTYLDKVENICKKLSNPFRYRMECPEIDCEEGWALLKCGGKNYERAKACFEKVLEVDPENPESSAGYAISAYRLDGFKLATKNHKPFSLLPLRQAVRLNPDNGYIKVLLALKLQDEGQEAEGEKYIEEALANMSSQTYVFRYAAKFYRRKGSVDKALELLKKALQETPTSVLLHHQIGLCYKAQMIQIKEATKGQPRGQNREKLDKMIRSAIFHFESAVEKKPTFEVAHLDLARMYIEAGNHRKAEENFQKLLCMKPVVEETMQDIHFHYGRFQEFQKKSDVNAIIHYLKAIKIEQASLTRDKSINSLKKLVLRKLRRKALDLESLSLLGFVYKLEGNMNEALEYYERALRLAADFENSVRQGP [A114T], the “effect of a mutation on the interaction” value was “disrupting interaction”.
